# Source: patent US20240116985A1, “STAPLED PEPTIDES AND METHODS THEREOF” (priority 2020, published 2024)
# Starred links: 1 amine or outer side, 2 acyl side, 3 side chain; linkers in the order of their positions; H or OH if unused. Positions of bridges follow the written chain, without caps; N, C: chain ends. Non-standard residues stand in square brackets, D forms with d. Primed or numbered codes have the meaning given here. No end group written: not given here. *: point of attachment. PyrS2″ = (S)-3-amino-1-((pent-4-en-1-yloxy)carbonyl)pyrrolidine-3-carboxylic acid (stapling residue), C=CCCCOC(=O)N1CC[C@@](N[*:1])(C(=O)[*:2])C1; B5(4) = 2,2-bis(4-pentenyl)glycine = 2-amino-2-(pent-4-en-1-yl)hept-6-enoic acid (stitching residue), C=CCCCC(CCCC=C)(N[*:1])C(=O)[*:2]; B5(5) = 2,2-bis(4-pentenyl)glycine, 2-amino-2-(pent-4-en-1-yl)hept-6-enoic acid (stitching residue), C=CCCCC(CCCC=C)(N[*:1])C(=O)[*:2]; TfeGA = (S)-2-amino-3-((carboxymethyl)(2,2,2-trifluoroethyl)amino)propanoic acid, O=C([C@H](CN(CC(=O)[*:3])CC(F)(F)F)N[*:1])[*:2]; B5(3) = 2,2-bis(4-pentenyl)glycine (stitching residue), C=CCCCC(CCCC=C)(N[*:1])C(=O)[*:2]; ProSAm3 = (allylsulfonyl)-D-proline, C=CCS(=O)(=O)N1CCC[C@@H]1C(=O)*; Phe(3-Ph) = N[C@@H](Cc1cccc(-c2ccccc2)c1)C(=O)O; Phe(3-COOH) = N[C@@H](Cc1cccc(C(=O)O)c1)C(=O)O; Phe(2-CF3) = N[C@@H](Cc1ccccc1C(F)(F)F)C(=O)O; Asp(3,3-Me2) = CC(C)(C(=O)O)[C@H](N)C(=O)O; Asp(3R-OH) = N[C@H](C(=O)O)[C@@H](O)C(=O)O; Phe(2-Cl) = N[C@@H](Cc1ccccc1Cl)C(=O)O; Phe(3-F) = N[C@@H](Cc1cccc(F)c1)C(=O)O; Phe(4-F) = N[C@@H](Cc1ccc(F)cc1)C(=O)O; Bta = N[C@@H](Cc1csc2ccccc12)C(=O)O; Lys(iPr) = CC(C)NCCCC[C@H](N)C(=O)O; αAllylPro = C=CC[C@@]1(C(=O)O)CCCN1; Azidoacetyl = [N-]=[N+]=NCC(=O)*; tBuAla = CC(C)(C)C[C@H](N)C(=O)O; 3Thi = N[C@@H](Cc1ccsc1)C(=O)O; 2F3MeF″ = Phe derivative; Ac3c = NC1(C(=O)O)CC1; Aib = CC(C)(N)C(=O)O; ClAc = O=C(CCl)*
# B1: I-879 (peptide)
# peptide: Ac-[αAllylPro]D[tBuAla][B5(4)]DDK(Azidoacetyl)AFN[PyrS2″][3Thi][Bta]Q-NH2
# modifications: staple 1-4, 4-11
# B2: I-878 (peptide)
# peptide: Ac-[αAllylPro]D[tBuAla][B5(4)]DDAAFN[PyrS2″][3Thi][Bta]K(Azidoacetyl)-NH2
# modifications: staple 1-4, 4-11
# B3: I-880 (peptide)
# peptide: Ac-[αAllylPro]DK(Azidoacetyl)[B5(4)]DDAAFN[PyrS2″][3Thi][Bta]Q-NH2
# modifications: staple 1-4, 4-11
# B4: I-1769 (peptide)
# peptide: Ac-[αAllylPro]D[tBuAla][B5(4)]D[TfeGA][Lys(iPr)]AFL[PyrS2″][3Thi][Bta]V-NH2
# modifications: staple 1-4, 4-11; also: -CH=CH- in each staple reduced to -CH2-CH2-
# B5: I-1755 (peptide)
# peptide: Ac-[αAllylPro]D[tBuAla][B5(4)]D[TfeGA]AAFL[PyrS2″][3Thi][Bta]F-NH2
# modifications: staple 1-4, 4-11; also: -CH=CH- in each staple reduced to -CH2-CH2-
# B6: I-1754 (peptide)
# peptide: Ac-[αAllylPro]D[tBuAla][B5(4)]D[TfeGA]AAFT[PyrS2″][3Thi][Bta]L-NH2
# modifications: staple 1-4, 4-11; also: -CH=CH- in each staple reduced to -CH2-CH2-
# B7: I-2263 (peptide)
# peptide: Ac-[αAllylPro]D[tBuAla][B5(3)]D[Phe(3-COOH)]AAFL[PyrS2″][Phe(4-F)][Bta]A-NH2
# modifications: staple 1-4, 4-11
# B8: I-1756 (peptide)
# peptide: Ac-[αAllylPro]D[tBuAla][B5(4)]D[TfeGA]AAFT[PyrS2″][3Thi][Bta]F-NH2
# modifications: staple 1-4, 4-11; also: -CH=CH- in each staple reduced to -CH2-CH2-
# B9: I-2256 (peptide)
# peptide: Ac-[αAllylPro]D[tBuAla][B5(3)]D[Phe(3-COOH)]AAFL[PyrS2″][Phe(3-Ph)][2F3MeF″]Q-NH2
# modifications: staple 1-4, 4-11
# B10: I-1765 (peptide)
# peptide: Ac-[αAllylPro]D[tBuAla][B5(4)]D[TfeGA][Lys(iPr)]AFL[PyrS2″][3Thi][Bta]L-NH2
# modifications: staple 1-4, 4-11; also: -CH=CH- in each staple reduced to -CH2-CH2-
# B11: I-2389 (peptide)
# peptide: Ac-[αAllylPro]D[tBuAla][B5(5)]D[Phe(3-COOH)]AAFL[PyrS2″][Phe(2-CF3)][Bta]QL[Ac3c]-NH2
# modifications: staple 1-4, 4-11
# B12: I-1761 (peptide)
# peptide: Ac-[αAllylPro]D[tBuAla][B5(5)]D[TfeGA][Lys(iPr)]AFL[PyrS2″][3Thi][Bta]F-NH2
# modifications: staple 1-4, 4-11
# B13: I-1763 (peptide)
# peptide: Ac-[αAllylPro]D[tBuAla][B5(5)]D[TfeGA][Lys(iPr)]AFL[PyrS2″][3Thi][Bta]V-NH2
# modifications: staple 1-4, 4-11
# B14: I-2253 (peptide)
# peptide: ClAc-[αAllylPro]D[tBuAla][B5(3)]D[Phe(3-COOH)]AAFL[PyrS2″][Phe(2-Cl)][Bta]A-NH2
# modifications: staple 1-4, 4-11
# B15: I-1751 (peptide)
# peptide: Ac-[αAllylPro]D[tBuAla][B5(4)]D[TfeGA]AAFL[PyrS2″][3Thi][Bta]V-NH2
# modifications: staple 1-4, 4-11; not fully specified
# B16: I-1750 (peptide)
# peptide: Ac-[αAllylPro]D[tBuAla][B5(5)]D[TfeGA]AAFL[PyrS2″][3Thi][Bta]F-NH2
# modifications: staple 1-4, 4-11
# B17: I-1753 (peptide)
# peptide: Ac-[αAllylPro]D[tBuAla][B5(4)]D[TfeGA]AAFL[PyrS2″][3Thi][Bta]L-NH2
# modifications: staple 1-4, 4-11; also: -CH=CH- in each staple reduced to -CH2-CH2-
# B18: I-1766 (peptide)
# peptide: Ac-[αAllylPro]D[tBuAla][B5(4)]D[TfeGA][Lys(iPr)]AFT[PyrS2″][3Thi][Bta]L-NH2
# modifications: staple 1-4, 4-11; also: -CH=CH- in each staple reduced to -CH2-CH2-
# B19: I-1758 (peptide)
# peptide: Ac-[αAllylPro]D[tBuAla][B5(4)]D[TfeGA]AAFT[PyrS2″][3Thi][Bta]V-NH2
# modifications: staple 1-4, 4-11; also: -CH=CH- in each staple reduced to -CH2-CH2-
# B20: I-1749 (peptide)
# peptide: Ac-[αAllylPro]D[tBuAla][B5(4)]D[TfeGA]AAFL[PyrS2″][3Thi][Bta]F-NH2
# modifications: staple 1-4, 4-11; not fully specified
# B21: I-2261 (peptide)
# peptide: Ac-[αAllylPro]D[tBuAla][B5(3)]D[Phe(3-COOH)]AAFL[PyrS2″][Phe(3-F)][Bta]A-NH2
# modifications: staple 1-4, 4-11
# B22: I-1764 (peptide)
# peptide: Ac-[αAllylPro]D[tBuAla][B5(5)]D[TfeGA][Lys(iPr)]AFT[PyrS2″][3Thi][Bta]V-NH2
# modifications: staple 1-4, 4-11
# B23: I-1767 (peptide)
# peptide: Ac-[αAllylPro]D[tBuAla][B5(4)]D[TfeGA][Lys(iPr)]AFL[PyrS2″][3Thi][Bta]F-NH2
# modifications: staple 1-4, 4-11; also: -CH=CH- in each staple reduced to -CH2-CH2-
# B24: I-2266 (peptide)
# peptide: [ProSAm3]D[tBuAla][B5(3)]D[TfeGA]AAFL[PyrS2″][3Thi][Bta]Q-NH2
# modifications: staple (positions not given here); staple 4-11; not fully specified (bridges)
# B25: I-1748 (peptide)
# peptide: Ac-[αAllylPro]D[tBuAla][B5(5)]D[TfeGA]AAFL[PyrS2″][3Thi][Bta]L-NH2
# modifications: staple 1-4, 4-11
# B26: I-1770 (peptide)
# peptide: Ac-[αAllylPro]D[tBuAla][B5(5)]D[TfeGA][Lys(iPr)]AFT[PyrS2″][3Thi][Bta]V-NH2
# modifications: staple 1-4, 4-11; also: -CH=CH- in each staple reduced to -CH2-CH2-
# B27: I-1752 (peptide)
# peptide: Ac-[αAllylPro]D[tBuAla][B5(4)]D[TfeGA]AAFL[PyrS2″][3Thi][Bta]V-NH2
# modifications: staple 1-4, 4-11; not fully specified
# B28: I-2258 (peptide)
# peptide: Ac-[αAllylPro][Asp(3R-OH)][tBuAla][B5(3)]D[Phe(3-COOH)]AAFL[PyrS2″][3Thi][Bta]A-NH2
# modifications: staple 1-4, 4-11
# B29: I-1771 (peptide)
# peptide: Ac-[αAllylPro]D[tBuAla][B5(4)][Asp(3,3-Me2)][TfeGA]AAFL[PyrS2″][3Thi][Bta]Q-NH2
# modifications: staple 1-4, 4-11
# B30: I-2267 (peptide)
# peptide: [ProSAm3]D[tBuAla][B5(3)]D[TfeGA]AAFL[PyrS2″][3Thi][Bta]Q-NH2
# modifications: staple (positions not given here); staple 4-11; not fully specified (bridges); also: staple double bonds reduced to -CH2-CH2-
# B31: I-1760 (peptide)
# peptide: Ac-[αAllylPro]D[tBuAla][B5(5)]D[TfeGA][Lys(iPr)]AFT[PyrS2″][3Thi][Bta]L-NH2
# modifications: staple 1-4, 4-11
# B32: I-1759 (peptide)
# peptide: Ac-[αAllylPro]D[tBuAla][B5(5)]D[TfeGA][Lys(iPr)]AFL[PyrS2″][3Thi][Bta]L-NH2
# modifications: staple 1-4, 4-11
# B33: I-1757 (peptide)
# peptide: Ac-[αAllylPro]D[tBuAla][B5(4)]D[TfeGA]AAFL[PyrS2″][3Thi][Bta]V-NH2
# modifications: staple 1-4, 4-11; also: -CH=CH- in each staple reduced to -CH2-CH2-
# B34: Ac-PL3-Asp-Npg-B5-Asp-3COOHF-Gln-Ala-Phe-Leu-PyrS2-2F3MeF-2F3MeW-Ala-NH2 (peptide)
# peptide: Ac-[αAllylPro]D[tBuAla][B5(3)]D[Phe(3-COOH)]QAFL[PyrS2″][Phe(2-CF3)][2F3MeW]A-NH2
# modifications: staple 1-4, 4-11
# B35: Ac-PL3-Asp-Npg-B5-Asn-Thr-Aib-Ala-Phe-Asn-PyrS2-3Thi-BztA-Trp-NH2 (peptide)
# peptide: Ac-[αAllylPro]D[tBuAla][B5(5)]NT[Aib]AFN[PyrS2″][3Thi][Bta]W-NH2
# modifications: staple 1-4, 4-11
# Target: full-length beta-Catenin (Uniprot ID P35222) (Homo sapiens (Human)) (UniProt P35222)
# Assay: fluorescence polarization competition vs 5FAM-TCF4(10-53) on full-length beta-catenin
# Target sequence in this assay (P35222 whole entry): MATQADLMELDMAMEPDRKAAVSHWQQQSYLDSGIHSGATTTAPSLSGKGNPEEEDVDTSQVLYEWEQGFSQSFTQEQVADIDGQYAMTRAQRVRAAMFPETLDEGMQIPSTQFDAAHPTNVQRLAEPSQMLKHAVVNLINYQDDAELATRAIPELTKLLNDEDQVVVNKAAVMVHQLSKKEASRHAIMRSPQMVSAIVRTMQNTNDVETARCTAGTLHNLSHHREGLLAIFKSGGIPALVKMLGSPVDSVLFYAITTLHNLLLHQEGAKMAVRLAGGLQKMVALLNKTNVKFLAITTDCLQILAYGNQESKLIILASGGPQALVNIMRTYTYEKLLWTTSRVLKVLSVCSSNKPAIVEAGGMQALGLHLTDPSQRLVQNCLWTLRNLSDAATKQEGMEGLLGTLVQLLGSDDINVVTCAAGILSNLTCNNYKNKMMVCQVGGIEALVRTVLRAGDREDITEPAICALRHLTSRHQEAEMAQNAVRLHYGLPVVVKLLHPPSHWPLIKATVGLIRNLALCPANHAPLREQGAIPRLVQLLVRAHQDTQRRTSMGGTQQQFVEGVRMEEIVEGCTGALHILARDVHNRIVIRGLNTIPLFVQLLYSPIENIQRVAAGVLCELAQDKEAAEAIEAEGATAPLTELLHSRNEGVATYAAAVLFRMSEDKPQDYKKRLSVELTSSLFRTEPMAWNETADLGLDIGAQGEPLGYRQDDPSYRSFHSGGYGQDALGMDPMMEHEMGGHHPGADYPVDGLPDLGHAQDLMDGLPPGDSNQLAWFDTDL
row,EC50 [nM],Binder
1,6,B1
2,6,B2
3,6,B3

# Target: full-length beta-Catenin (Uniprot ID P35222) (Homo sapiens (Human)) (UniProt P35222)
# Assay: fluorescence polarization competition; full-length beta-catenin, competitor 5FAM-TCF4(10-53)
row,IC50 [nM],Binder
1,419,B4
2,570,B5
3,660,B6
4,47,B7
5,329,B8
6,8410,B9
7,667,B10
8,72,B11
9,39,B12
10,52,B13
11,189,B14
12,104,B15
13,104,B16
14,802,B17
15,267,B18
16,235,B19
17,145,B20
18,34,B21
19,23,B22
20,327,B23
21,266,B24
22,141,B25
23,175,B26
24,87,B27
25,272,B28
26,209,B29
27,499,B30
28,32,B31
29,57,B32
30,449,B33

# Target: full-length beta-Catenin (Uniprot ID P35222) (Homo sapiens (Human)) (UniProt P35222)
# Assay: fluorescence polarization competition; full-length beta-catenin, 5FAM-TCF4(10-53) probe as competitor
# Target sequence in this assay (P35222 2-781 limits assumed): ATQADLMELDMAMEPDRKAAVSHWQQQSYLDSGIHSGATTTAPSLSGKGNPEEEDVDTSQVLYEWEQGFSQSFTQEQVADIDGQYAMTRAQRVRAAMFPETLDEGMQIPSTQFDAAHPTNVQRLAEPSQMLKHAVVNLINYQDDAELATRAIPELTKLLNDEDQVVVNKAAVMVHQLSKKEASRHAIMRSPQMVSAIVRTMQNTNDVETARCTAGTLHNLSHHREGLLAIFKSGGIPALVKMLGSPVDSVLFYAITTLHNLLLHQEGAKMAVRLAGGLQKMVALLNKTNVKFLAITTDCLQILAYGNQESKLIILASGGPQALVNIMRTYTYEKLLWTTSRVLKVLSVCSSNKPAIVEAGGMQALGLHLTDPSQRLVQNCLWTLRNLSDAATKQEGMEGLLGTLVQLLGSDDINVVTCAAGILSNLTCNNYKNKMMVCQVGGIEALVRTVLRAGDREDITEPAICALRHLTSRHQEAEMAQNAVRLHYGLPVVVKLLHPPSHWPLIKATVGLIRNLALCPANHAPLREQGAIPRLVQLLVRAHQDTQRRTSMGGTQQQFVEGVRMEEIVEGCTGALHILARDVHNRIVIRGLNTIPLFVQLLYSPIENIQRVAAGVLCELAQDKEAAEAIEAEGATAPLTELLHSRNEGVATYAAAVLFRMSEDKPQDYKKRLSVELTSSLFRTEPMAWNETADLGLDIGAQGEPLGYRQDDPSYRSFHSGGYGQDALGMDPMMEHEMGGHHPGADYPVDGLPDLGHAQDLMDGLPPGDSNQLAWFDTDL
row,IC50 [nM],Binder
1,4750,B34
2,754,B35
